Here are results for 2 molecules from article PMC6422423 (2019).

This assay concerns the target gastrin-releasing peptide receptor (UniProt P30550 1-384). Description: competition with 125I-GRP.

Where no end group is shown, it is not given here.

Sequence of gastrin-releasing peptide receptor (P30550 whole entry): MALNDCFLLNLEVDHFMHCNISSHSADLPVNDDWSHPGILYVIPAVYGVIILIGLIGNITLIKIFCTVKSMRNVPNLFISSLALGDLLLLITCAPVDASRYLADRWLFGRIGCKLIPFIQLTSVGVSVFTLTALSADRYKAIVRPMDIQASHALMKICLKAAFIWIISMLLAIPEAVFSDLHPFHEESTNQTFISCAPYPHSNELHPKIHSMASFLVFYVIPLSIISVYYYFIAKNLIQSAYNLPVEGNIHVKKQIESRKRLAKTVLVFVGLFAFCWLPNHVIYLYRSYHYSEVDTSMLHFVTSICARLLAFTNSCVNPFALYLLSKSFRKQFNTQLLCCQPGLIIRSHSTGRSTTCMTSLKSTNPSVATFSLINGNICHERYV

B1: neuromedin B, unlabeled ligand peptide of the radioligand binding assays (peptide)
peptide: YKIKVNPRGNLWATGHFM
modifications: ends and bridges not checked
As usually defined, the IC50 is the concentration at which inhibition is half-maximal. A high value points to weaker potency in that assay. The molecule B1 registered a 50% inhibitory concentration (IC50) of 151 nM.

B2: gastrin-releasing peptide, unlabeled ligand peptide of the radioligand binding assays (peptide)
peptide: APLQPGGSPALTKIYPRGSHWAVGHLM
modifications: ends and bridges not checked
Molecule B2 came in with a half-maximal inhibitory concentration (IC50) of 0.2 nM.
